# Results: article PMC5966407, “Distinct roles of XPF-ERCC1 and Rad1-Rad10-Saw1 in replication-coupled and uncoupled inter-strand crosslink repair” (Nature Communications, 2018)
# B1: His-Rad1 (natural protein, S. cerevisiae, UniProt P06777 1-1100, looked up)
# chain: MSQLFYQGDSDDELQEELTRQTTQASQSSKIKNEDEPDDSNHLNEVENEDSKVLDDDAVLYPLIPNEPDDIETSKPNINDIRPVDIQLTLPLPFQQKVVENSLITEDALIIMGKGLGLLDIVANLLHVLATPTSINGQLKRALVLVLNAKPIDNVRIKEALEELSWFSNTGKDDDDTAVESDDELFERPFNVVTADSLSIEKRRKLYISGGILSITSRILIVDLLSGIVHPNRVTGMLVLNADSLRHNSNESFILEIYRSKNTWGFIKAFSEAPETFVMEFSPLRTKMKELRLKNVLLWPRFRVEVSSCLNATNKTSHNKVIEVKVSLTNSMSQIQFGLMECLKKCIAELSRKNPELALDWWNMENVLDINFIRSIDSVMVPNWHRISYESKQLVKDIRFLRHLLKMLVTSDAVDFFGEIQLSLDANKPSVSRKYSESPWLLVDEAQLVISYAKKRIFYKNEYTLEENPKWEQLIHILHDISHERMTNHLQGPTLVACSDNLTCLELAKVLNASNKKRGVRQVLLNKLKWYRKQREETKKLVKEVQSQDTFPENATLNVSSTFSKEQVTTKRRRTRGASQVAAVEKLRNAGTNVDMEVVFEDHKLSEEIKKGSGDDLDDGQEENAANDSKIFEIQEQENEILIDDGDAEFDNGELEYVGDLPQHITTHFNKDLWAEHCNEYEYVDRQDEILISTFKSLNDNCSLQEMMPSYIIMFEPDISFIRQIEVYKAIVKDLQPKVYFMYYGESIEEQSHLTAIKREKDAFTKLIRENANLSHHFETNEDLSHYKNLAERKLKLSKLRKSNTRNAGGQQGFHNLTQDVVIVDTREFNASLPGLLYRYGIRVIPCMLTVGDYVITPDICLERKSISDLIGSLQNNRLANQCKKMLKYYAYPTLLIEFDEGQSFSLEPFSERRNYKNKDISTVHPISSKLSQDEIQLKLAKLVLRFPTLKIIWSSSPLQTVNIILELKLGREQPDPSNAVILGTNKVRSDFNSTAKGLKDGDNESKFKRLLNVPGVSKIDYFNLRKKIKSFNKLQKLSWNEINELINDEDLTDRIYYFLRTEKEEQEQESTDENLESPGKTTDDNALHDHHNDVPEAPV
# Molecular target: Rpa1 (yeast), the large subunit of the replication protein A (RPA) complex (S. cerevisiae (endogenous in yeast …, UniProt P22336 1-621))
# Assay: cell-based or functional assay
# Rpa1 (yeast), the large subunit of the replication protein A (RPA) complex (S. cerevisiae, sequence (P22336 whole entry, one chain of several): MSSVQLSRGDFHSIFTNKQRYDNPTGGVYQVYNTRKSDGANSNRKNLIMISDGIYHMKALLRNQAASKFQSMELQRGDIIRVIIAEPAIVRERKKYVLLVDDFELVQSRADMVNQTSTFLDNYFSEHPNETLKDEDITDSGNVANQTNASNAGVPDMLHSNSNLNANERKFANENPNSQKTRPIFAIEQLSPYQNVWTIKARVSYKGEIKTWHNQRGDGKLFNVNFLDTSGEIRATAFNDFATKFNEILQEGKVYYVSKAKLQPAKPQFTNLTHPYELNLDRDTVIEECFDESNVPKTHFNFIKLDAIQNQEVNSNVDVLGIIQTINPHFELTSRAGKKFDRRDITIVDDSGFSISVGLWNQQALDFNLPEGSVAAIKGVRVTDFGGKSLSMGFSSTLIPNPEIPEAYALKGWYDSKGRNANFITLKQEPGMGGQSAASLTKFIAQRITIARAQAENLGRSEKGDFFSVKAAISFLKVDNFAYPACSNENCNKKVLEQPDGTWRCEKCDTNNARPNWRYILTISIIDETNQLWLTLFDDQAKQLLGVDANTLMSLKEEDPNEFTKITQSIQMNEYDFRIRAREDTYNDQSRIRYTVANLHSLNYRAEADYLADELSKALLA
binder,measurement,value
B1,"3′ flap cleavage by purified His-Rad1–Rad10 (200 nM) in the presence of purified yeast RPA (80 nM), in vitro endonuclease assay",~2 fold
